# Positions count from the first letter of the chain named. Numbers in names are those of the source.
# B1: rh Bri2 BRICHOS D148N (domain or fragment, human, UniProt Q9Y287 113-231, looked up)
# chain: QTIEENIKIFEEEEVEFISVPVPEFADSDPANIVHNFNKKLTAYLDLNLDKCYVIPLNTSIVMPPRNLLELLINIKAGTYLPQSYLIHEHMVITDRIENIDHLGFFIYRLCHDKETYKL
# notes: human integral membrane protein 2B (Bri2), BRICHOS domain, residues 113-231, with D148N; Isolated by SEC as monomer, dimer and oligomer fractions; the assay's format tells which fraction was used; also called D148N mutant; source: E. coli SHuffle T7, purified (Ni-NTA, thrombin cleavage, second Ni-NTA, SEC); not shown: His6, N-terminal, cleaved; NT* solubility tag, N-terminal, cleaved
# B2: rh Bri2 BRICHOS T206W (domain or fragment, human, UniProt Q9Y287 113-231, looked up)
# chain: B1 chain with N36D, T94W
# notes: human integral membrane protein 2B (Bri2), BRICHOS domain, residues 113-231, with T206W; Monomer and dimer fractions were used for Trp fluorescence; also called rh Bri2 BRICHOS Trp mutant; source: E. coli SHuffle T7, purified (Ni-NTA, thrombin cleavage, second Ni-NTA, SEC); not shown: His6, N-terminal, cleaved; NT* solubility tag, N-terminal, cleaved
# B3: recombinant human (rh) wildtype proSP-C BRICHOS (domain or fragment, UniProt P11686 86-197, looked up)
# chain: EHLVTTATFSIGSTGLVVYDYQQLLIAYKPAPGTCCYIMKIAPESIPSLEALTRKVHNFQMECSLQAKPAVPTSKLGQAEGRDAGSAPSGGDPAFLGMAVSTLCGEVPLYYI
# notes: human prosurfactant protein C (proSP-C), BRICHOS domain, residues 86-197; By SEC mainly a trimer, with some dimers and monomers; also called rh proSP-C BRICHOS; wt proSP-C BRICHOS; source: E. coli Origami 2 (DE3) pLysS, purified (Ni-NTA, ion exchange QFF; thrombin cleavage); not shown: thioredoxin, N-terminal, cleaved
# B4: rh proSP-C BRICHOS D105N (domain or fragment, human, UniProt P11686 86-197, looked up)
# chain: B3 chain with D20N
# notes: human prosurfactant protein C (proSP-C), BRICHOS domain, residues 86-197, with D105N; By SEC a trimer, with more dimers and less monomers than the wildtype; also called D105N mutant; source: E. coli Origami 2 (DE3) pLysS, purified (Ni-NTA, ion exchange QFF; thrombin cleavage); not shown: thioredoxin, N-terminal, cleaved
# Tests used:
# [1] = molecular target: the molecule itself; experiment: SEC; Bri2 BRICHOS species after thrombin removal of His6-NT* from the fusion protein's monomer, dimer and oligomer fractions; 20 mmol L^-1 NaPi, 0.2 mmol L^-1 EDTA
# [2] = molecular target: the molecule itself; experiment: SEC; rh Bri2 BRICHOS D148N monomer fraction at 0.5, 1, 5, 10, 15 and 100 µmol L^-1; monomer to dimer
# [3] = molecular target: the molecule itself; experiment: other fluorescence titration; Trp fluorescence of 2 µmol L^-1 rh Bri2 BRICHOS T206W monomers, 20 mmol L^-1 NaPi, 0.2 mmol L^-1 EDTA, pH 6.3-8.0; excitation 280 nm; monomer to dimer
# [4] = molecular target: the molecule itself; experiment: SEC; purified rh proSP-C BRICHOS variants on Superdex 200 GL
protein,measurement,setting,value
B1,stoichiometry N,[1],2
same,ratio of dimers to monomers at 0.5 µmol L^-1,[2],~1 dimers:monomers
B2,binding result,[3],binds
B3,stoichiometry N,[4],3
B4,stoichiometry N,[4],3
